According to the supplement of paper PMC6755084:

B1: F1*; the commonest letter at each place (parent)
chain: GAGACCGCAACTGAAAAGTTGTTATCACTTGTCGTAAGACACTTTGGATGGGTTGAAGTTCTGCACGTAGAAGCAAAAGGC

Variants of: B1
Assay: fraction ligated after 30 min (ligated reads / total reads); higher = more ligase activity
Settings: with F1*sub RNA substrate (template-directed ligation), 42 °C
Description: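 Chip-synthesised pool of F1* ligase ribozyme variants (all single and double substitutions, single, double and triple deletions in the catalytic core and GAA bulge, plus designed variants) was transcribed with T7 and reacted as a pool with excess substrate F1*sub for 30 min at 42 C in 50 mM EPPS pH 8.5, 25 mM MgCl2. Ligated and unligated bands were separated by PAGE, barcoded by RT and deep sequenced; fraction ligated = ligated reads / total reads per variant, relative activity = FL / FL of wild type (0.826). Sequences are the DNA template of the ribozyme.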

Q: Which fraction ligated does the source give for GAGACCGCAACTGAAAAGTTGTTATTACTTGGCGTAAGACACTTTGGATGGGTTGAAGTTCTGCACGTAGAAGCAAAAGGC [C26T T32G] here?
A: 0.801

Q: With GAGACCGCAACTGAAAAGTTGTTATTACTTGACGTAAGACACTTTGGATGGGTTGAAGTTCTGCACGTAGAAGCAAAAGGC [C26T T32A] as the variant, how does the fraction ligated read?
A: 0.701

Q: For GAGACCGCAACTGAAAAGTTGTTATTACTTGCCGTAAGACACTTTGGATGGGTTGAAGTTCTGCACGTAGAAGCAAAAGGC [C26T T32C], which fraction ligated is on record?
A: 0.792

Q: How did the fraction ligated turn out when GAGACCGCAACTGAAAAGTTGTTATTACGTGTCGTAAGACACTTTGGATGGGTTGAAGTTCTGCACGTAGAAGCAAAAGGC [C26T T29G] was run?
A: 0.816

Q: With GAGACCGCAACTGAAAAGTTGTTATTACATGTCGTAAGACACTTTGGATGGGTTGAAGTTCTGCACGTAGAAGCAAAAGGC [C26T T29A] as the variant, how does the fraction ligated read?
A: 0.845

Q: GAGACCGCAACTGAAAAGTTGTTATTACCTGTCGTAAGACACTTTGGATGGGTTGAAGTTCTGCACGTAGAAGCAAAAGGC [C26T T29C] was tested. Which fraction ligated did it give?
A: 0.848

Q: Which fraction ligated does the source give for GAGACCGCAACTGAAAAGTTGTTATTACTTGTCGTAAGACACTTTGGATGGGTTTAAGTTCTGCACGTAGAAGCAAAAGGC [C26T G55T] here?
A: 0.815

Q: GAGACCGCAACTGAAAAGTTGTTATTACTTGTCGTAAGACACTTTGGATGGGTTCAAGTTCTGCACGTAGAAGCAAAAGGC [C26T G55C] was tested. Which fraction ligated did it give?
A: 0.3

Q: Which fraction ligated does the source give for GAGACCGCAACTGAAAAGTTGTTATTACTTGTCGTAAGACACTTTGGATGGGTTAAAGTTCTGCACGTAGAAGCAAAAGGC [C26T G55A] here?
A: 0.811

Q: How did the fraction ligated turn out when GAGACCGCAACTGAAAAGTTGTTATTACTTGTCGTAAGACACTTTGGATGGGTTGAGGTTCTGCACGTAGAAGCAAAAGGC [C26T A57G] was run?
A: 0.86

Q: How did the fraction ligated turn out when GAGACCGCAACTGAAAAGTTGTTATTACTTGTCGTAAGACACTTTGGATGGGTTGACGTTCTGCACGTAGAAGCAAAAGGC [C26T A57C] was run?
A: 0.84

Q: Which fraction ligated does the source give for GAGACCGCAACTGAAAAGTTGTTATTACTTGTCGTAAGACACTTTGGATGGGTTGATGTTCTGCACGTAGAAGCAAAAGGC [C26T A57T] here?
A: 0.852

Q: For GAGACCGCAACTGAAAAGTTGTTATTACTTGTCGTAAGACACGTTGGATGGGTTGAAGTTCTGCACGTAGAAGCAAAAGGC [C26T T43G], which fraction ligated is on record?
A: 0.79

Q: GAGACCGCAACTGAAAAGTTGTTATTACTTGTCGTAAGACACATTGGATGGGTTGAAGTTCTGCACGTAGAAGCAAAAGGC [C26T T43A] was tested. Which fraction ligated did it give?
A: 0.827

Q: How did the fraction ligated turn out when GAGACCGCAACTGAAAAGTTGTTATTACTTGTCGTAAGACACCTTGGATGGGTTGAAGTTCTGCACGTAGAAGCAAAAGGC [C26T T43C] was run?
A: 0.788

Q: GAGACCGCAACTGAAAAGTTGTTATTACTTTTCGTAAGACACTTTGGATGGGTTGAAGTTCTGCACGTAGAAGCAAAAGGC [C26T G31T] was tested. Which fraction ligated did it give?
A: 0.585

Q: GAGACCGCAACTGAAAAGTTGTTATTACTTATCGTAAGACACTTTGGATGGGTTGAAGTTCTGCACGTAGAAGCAAAAGGC [C26T G31A] was tested. Which fraction ligated did it give?
A: 0.342

Q: With GAGACCGCAACTGAAAAGTTGTTATTACTTCTCGTAAGACACTTTGGATGGGTTGAAGTTCTGCACGTAGAAGCAAAAGGC [C26T G31C] as the variant, how does the fraction ligated read?
A: 0.408

Q: With GAGACCGCAACTGAAAAGTTGTTATTACTTGTCGTAAGACACTTTGGAAGGGTTGAAGTTCTGCACGTAGAAGCAAAAGGC [C26T T49A] as the variant, how does the fraction ligated read?
A: 0.392

Q: GAGACCGCAACTGAAAAGTTGTTATTACTTGTCGTAAGACACTTTGGGTGGGTTGAAGTTCTGCACGTAGAAGCAAAAGGC [C26T A48G] was tested. Which fraction ligated did it give?
A: 0.756

Q: GAGACCGCAACTGAAAAGTTGTTATTACTTGTCGTAAGACACTTTGGTTGGGTTGAAGTTCTGCACGTAGAAGCAAAAGGC [C26T A48T] was tested. Which fraction ligated did it give?
A: 0.0105

Q: Which fraction ligated does the source give for GAGACCGCAACTGAAAAGTTGTTATTACTTGTCGTAAGACACTTTGGCTGGGTTGAAGTTCTGCACGTAGAAGCAAAAGGC [C26T A48C] here?
A: 0.418

Q: With GAGACCGCAACTGAAAAGTTGTTATTACTTGTCGTAAGAGACTTTGGATGGGTTGAAGTTCTGCACGTAGAAGCAAAAGGC [C26T C40G] as the variant, how does the fraction ligated read?
A: 0.817

Q: GAGACCGCAACTGAAAAGTTGTTATTACTTGTCGTAAGATACTTTGGATGGGTTGAAGTTCTGCACGTAGAAGCAAAAGGC [C26T C40T] was tested. Which fraction ligated did it give?
A: 0.833

Q: Which fraction ligated does the source give for GAGACCGCAACTGAAAAGTTGTTATTACTTGTCGTAAGAAACTTTGGATGGGTTGAAGTTCTGCACGTAGAAGCAAAAGGC [C26T C40A] here?
A: 0.797

Q: For GAGACCGCAACTGAAAAGTTGTTATTACTTGTCGTAAGACACTTTGGATGGGTTGCAGTTCTGCACGTAGAAGCAAAAGGC [C26T A56C], which fraction ligated is on record?
A: 0.29

Q: GAGACCGCAACTGAAAAGTTGTTATTACTTGTCGTAAGACACTTTGGATGGGTTGGAGTTCTGCACGTAGAAGCAAAAGGC [C26T A56G] was tested. Which fraction ligated did it give?
A: 0.768

Q: With GAGACCGCAACTGAAAAGTTGTTATTACTTGTCGTAAGACACTTTGGATGGGTTGTAGTTCTGCACGTAGAAGCAAAAGGC [C26T A56T] as the variant, how does the fraction ligated read?
A: 0.867

Q: With GAGACCGCAACTGAAAAGTTGTTATTACTTGTGGTAAGACACTTTGGATGGGTTGAAGTTCTGCACGTAGAAGCAAAAGGC [C26T C33G] as the variant, how does the fraction ligated read?
A: 0.819

Q: GAGACCGCAACTGAAAAGTTGTTATTACTTGTAGTAAGACACTTTGGATGGGTTGAAGTTCTGCACGTAGAAGCAAAAGGC [C26T C33A] was tested. Which fraction ligated did it give?
A: 0.798

Q: How did the fraction ligated turn out when GAGACCGCAACTGAAAAGTTGTTATTACTTGTTGTAAGACACTTTGGATGGGTTGAAGTTCTGCACGTAGAAGCAAAAGGC [C26T C33T] was run?
A: 0.829

Q: How did the fraction ligated turn out when GAGACCGCAACTGAAAAGTTGTTATTACTTGTCGTAAGACAGTTTGGATGGGTTGAAGTTCTGCACGTAGAAGCAAAAGGC [C26T C42G] was run?
A: 0.795

Q: For GAGACCGCAACTGAAAAGTTGTTATTACTTGTCGTAAGACAATTTGGATGGGTTGAAGTTCTGCACGTAGAAGCAAAAGGC [C26T C42A], which fraction ligated is on record?
A: 0.804

Q: How did the fraction ligated turn out when GAGACCGCAACTGAAAAGTTGTTATTACTTGTCGTAAGACATTTTGGATGGGTTGAAGTTCTGCACGTAGAAGCAAAAGGC [C26T C42T] was run?
A: 0.837
